Results reported in patent US7893032B2, “NgR variants and compositions thereof for suppressing axonal growth inhibition” (Yale University, priority 2005, dated 2011).

What was measured:
[1] = tested on: E13 chick DRG growth cones; test: Nogo-induced growth cone collapse in E13 chick DRG neurons overexpressing NgR proteins; format: cell-based; conditions: E13 DRG cells with endogenous NgR; 100 μM Nogo-66 (FIG. 2 legend)
Experimental: (§1) FIG. 2 quantifies collapsed E7 (A) or E13 (B) chick DRG growth cones expressing the indicated proteins and exposed (dark) or not exposed (light) to 100 μM Nogo-66.
At E13, DRG neurons express NgR and respond to Nogo with growth cone collapse that is not altered by overexpression of wild-type NgR. (FIG. 2B). […] (FIG. 2B). Thus, NgR-R377Q is a dominant negative protein.

[2] = tested on: E7 chick DRG growth cones; test: Nogo-induced growth cone collapse in E7 chick DRG neurons expressing NgR proteins; format: cell-based; conditions: for growth cone collapse in the presence of Nogo: E7 DRG cells expressing the protein from a viral vector, 100 μM Nogo-66 (FIG. 2 legend)
Experimental: as §1
The signaling ability of the NgR mutant proteins was directly assessed by expressing the proteins in chick DRG neurons and monitoring Nogo-induced growth cone collapse. […] (FIG. 2A).

Molecule	effect of overexpression on extent of Nogo-induced growth cone collapse [1]	growth cone collapse in the presence of Nogo [2]	signaling ability (signal transduction) ([2]; E7 DRG cells expressing the protein, Nogo-induced growth cone collapse as readout)
wild-type NgR: Wild-type full-length human NgR protein (protein, listed as Homo sapiens) MKRASAGGSRLLAWVLWLQAWQVAAPCPGACVCYNEPKVTTSCPQQGLQAVPVGIPAASQRIFLHGNRISHVPAASFRACRNLTILWLHSNVLARIDAAAFTGLALLEQLDLSDNAQLRSVDPATFHGLGRLHTLHLDRCGLQELGPGLFRGLAALQYLYLQDNALQALPDDTFRDLGNLTHLFLHGNRISSVPERAFRGLHSLDRLLLHQNRVAHVHPHAFRDLGRLMTLYLFANNLSALPTEALAPLRALQYLRLNDNPWVCDCRARPLWAWLQKFRGSSSEVPCSLPQRLAGRDLKRLAANDLQGCAVATGPYHPIWTGRATDEEPLGLPKCCQPDAADKASVLEPGRPASAGNALKGRVPPGDSPPGNGSGPRHINDSPFGTLPGSAEPPLTAVRPEGSEPPGFPTSGPRRRPGCSRKNRTRSHCRLGQAGSGGGGTGDSEGSGALPSLTCSLTPLGLALVLWTVLGPC	not altered	exhibited growth cone collapse in the presence of Nogo	–
NgR-R377Q: Full length human NgR R377Q mutant protein (protein, Human NgR R377Q mutant, Full length human NgR R377Q mutant protein) MKRASAGGSRLLAWVLWLQAWQVAAPCPGACVCYNEPKVTTSCPQQGLQAVPVGIPAASQRIFLHGNRISHVPAASFRACRNLTILWLHSNVLARIDAAAFTGLALLEQLDLSDNAQLRSVDPATFHGLGRLHTLHLDRCGLQELGPGLFRGLAALQYLYLQDNALQALPDDTFRDLGNLTHLFLHGNRISSVPERAFRGLHSLDRLLLHQNRVAHVHPHAFRDLGRLMTLYLFANNLSALPTEALAPLRALQYLRLNDNPWVCDCRARPLWAWLQKFRGSSSEVPCSLPQRLAGRDLKRLAANDLQGCAVATGPYHPIWTGRATDEEPLGLPKCCQPDAADKASVLEPGRPASAGNALKGRVPPGDSPPGNGSGPQHINDSPFGTLPGSAEPPLTAVRPEGSEPPGFPTSGPRRRPGCSRKNRTRSHCRLGQAGSGGGGTGDSEGSGALPSLTCSLTPLGLALVLWTVLGPC	significantly decreased	did not	inactive in signal transduction
